From the DeepSol protein solubility set

Assay: soluble on expression in E. coli; label from the status in PepcDB or PDB records

Sequence | soluble on expression in E. coli
KERPEISLPSDFEHTIHVGFDAVTGEFTGMPEQWARLLQTSNITKSEQKKNPQAVLDVLEFYNSKKTSNSQKYMSFTDKS | soluble
SNAENNQTTTTHSKVISHVFCTGTAKLGSVGPPIGLVDIGVSEVAYIFRVSLPGIEKNQDKIKCEIQREGRVCIQGVIPEIAIPSDTGCLYRMQVQQLCPPGPFSITFNLPGQVDPRLFSPNFRSDGIFEVVVVKLGVRIPTS | soluble
MSDAPTVVAYLGPAGTFTEEALYKFADAGVFGDGEIEQLPAKSPQEAVDAVRHGTAQFAVVAIENFVDGPVTPTFDALDQGSNVQIIAEEELDIAFSIMVRPGTSLADVKTLATHPVGYQQVKNWMATTIPDAMYLSASSNGAGAQMVAEGTADAAAAPSRAAELFGLERLVDDVADVRGARTRFVAVQAQAAVSEPTGHDRTSVIFSLPNVPGSLVRALNEFAIRGVDLTRIESRPTRKVFGTYRFHLDISGHIRDIPVAEALRALHLQAEELVFVGSWPSNRAEDSTPQTDQLAKLHKADEWVRAASEGRKLN | soluble
MALRSVCRWHNGEPAVLSSYGLRVRLSRMEDQCRVLAAAVETLDDVFYVYDADGKLAYWNARLNELFGLTDGELSGMDPTEFFVADDRAAVEAAIEDVFESGQTSVEARAETTEGVVTFELSGRLLTGDDGTVQGFSGVGRDIT | not soluble
MGSDKIHHHHHHMNWDDIKIFLEVARAERLSTAAKRLTMDASTVSRRLHKLEESIATKLFDRTQDGHVLTPDGEMLLTSACKMEQDAQHALSSIHNNNEENCGLVRIGVTEALGNFFVSPNLLTLQQQHPSIDVHLLLFSRYVKISRNEADIAIAVERPKSTSMIVSKLCDYKLQLYVHQDYLDHNLKQYPQGITLDNLAEHKWVTYVDNLIFTDQLSYIKELDRYLSGELKANFSSTSIISQYFAIKSGLGIGILPCFLADQDKSLIKLHSQDITISRSFWLVTHPESKRLSHVNTVWQYLKQLVLEHAELLNPKE | not soluble
MAHHHHHHMSIPLENWGQLKLSVAKPELKSEDGGDVKRDECVLELLALPKGKAKDNPNYVPRPILSIPISAIASASGTTKNDVSLTMRPAATAGAEDLELRSIRFAVPNVCVGYEETEMAGKVILQDIQSSMMQYQEQFLQRHGSGGQGGKLLALAAMGSGQAKHTDEVVVATFDDVLLSYPSGKYKIVISNYNVVLEDKKKGTSSGLLSFSLSEIQNLFLCDVPVYFSPTEEVDANSLPQYVVLILKNPLKIRSTAYNHVVISCPAGLTLDEEHPWRCELKTQDEINKTLQLPPSKEGEEPPLVPTMSGRVSDILTRTFKAIAKVPAYGGINKEYKSVLTSHSQSSMRCLFHGAEGLLYIVNSGFLYLHRPATRILFNEVARVELDESESGQATFQLTVFATGAKGDDKYVFSGIAKEEKNGLLSYLATKVKVVHTGGDAMESDDDDEKDDTSDEDESDDSDYDDSDTEDDDSSDDGGDHDSSRKRKREDKKHEKDKKHKKDKKHKKDKKHKKDKKHKKDKKHKKDKKHKKDKKHKKDRKHKKDKHEKSDA | soluble
SLVAVIGCCHGELNRLYMEVEKYENEKNEKVDLILCCGDMQTIRDENDLQDMAVKSHRSKKGDFWEYYEGLKKAPKLTIFIGGNHETPNVLIPLYYGGWVAPNIFYLGSSGVIRVGDVRVAGISGIYKNYDHFRGYYESKPFTEESKRSWYHIRWLEIQKLLLIENIKSNFLGSTESRKVDVMISHDWPNGIERFGNLNYLIRRKPYLKEDIELGRLGIPGCIELIEHLRPTFWFSGHHHCFFDASIEFENQLYSSEFRAIDKFKNSNSPVRYFDINSNKNDVRIYLDFEWLTILRSVKANIPKGNFTIDKNSIPKLSGPTKSDIDAIYKNLKEVIGDFDENHYEWPLWGQANGNFKNLQDQYNFINRIIEEG | not soluble
HPECKKSVEDVNNDLKKFVSINGKKTVTEFHRELGKIMWNNVGMARSEESCKEALKVIPQIREEFWKNVKVSGSGAEFNQQLENAGRVADFLEFAELMTLDALHRNESCGGHFRVEHQMPD | not soluble
MSLASSLHVLLEKIIKIGDLTVNSPGGSRTFGDGTGKKVVLNFTDEAAMQEIAADPALKLAEMYMEGRAKVAKGDIYDFLALVKGNTLSEALSFGMIWRGMARIIAARIKMRLPVNHNKSNVAHHYDLSAKLFDLFLDEDWQYSCAYFNPPDIGLYEAQVAKKRHIAAKLMTEPGQSVLEIGSGWGGMAMYIAESAGADVTGITLSEEQLRVSRDRAAKRGLAGNVRFELQDYRYLPASKKYDRIVSVGMFEHVGPTHYRDYFDKVAEVLDDKGVMVLHSIGQPYPALATNPFIEKYIFPGGYIPSLAEVLPAIQKSGLLVKDIEILPMHYAHTLRHWRERFVARKAEAVALYDERFFRMWEFYLAGSEMAFTHENFHIFQIQLAKDRDAVPHNRDYIAQNEAKLLEFEKTRPPLEKVSEGHHHHHH | soluble
AVLLLGEVTNGALNRDATAKAVAAVKALGDVTVLCAGASAKAAAEEAAKIAGVAKVLVAEDALYGHRLAEPTAALIVGLAGDYSHIAAPATTDAKNVMPRVAALLDVMVLSDVSAILDADTFERPIYAGNAIQVVKSKDAKKVFTIRTASFDAAGEGGTAPVTETAAAADPGLSSWVADEVAESDRPELTSARRVVSGGRGLGSKESFAIIEELADKLGAAVGASRAAVDSGYAPNDWQVGQTGKVVAPELYVAVGISGAIQHLAGMKDSKVIVAINKDEEAPIFQIADYGLVGDLFSVVPELTGKL | soluble
MGSDKIHHHHHHMRNPEVIVIGSGIGGLCCGGLLAKAGKRVLILEAHSKPGGAAHGFEKNGYKFESGPSLWSGIGSWPTTNPLGQVLKALNQKVDLIKYQDWNVQIPEGDYTIGVGDRRFLDQINSISGKDAMKEWENFIQVIKPIGAAANAIPLLALNQNKETVLQLLKRSKTLLTHLKSFKYLGGAFGNLVDDHLKDPFLRNWVELLCFLISGLSKDETNAAAMATLFDDWFNPDAYLEYPKGGSESIVKALLDGIYSFGGDLQLNSKVSQIIIKRNKAIGIELKNGERIFADHIVSNADIWNTIELIPKEISQKWRGKRSKTPKCKSFLHLHLGFNAEGLKDIPLHSIWVNDWSKGITAERNVVVLSIPSALDPTMSPPNKHILHGYTPANEPWERWEGLKIGSKEYERTKEERCSVFWEPIKKLVPDIEERIEVKMLGTPLTHQRFLNTKNGSYGPALSAAEGLFPGNKTPIKNLLLCGSSTFPGIGIPPVAASGAMAANTILGSKFQRDLIEELGL | not soluble
DNRLKEENPDSTLRDTEYIDVGESPDGGKYRGVILFELGQLNKTNKIEKATLSLFWYYPEESRKEDTILEVYRPEKWCEEHISWGAREINTPWKNPGGDWYDKNGVSQGSTPYSTITFKSSSLPDNRYYELDVTELVREYISGKYENTGFLIKSRAEDSDYIAFYSSEWQNKNQMPRLSIEYKNE | not soluble
MDKQIGFIGCGNMGMAMIGGMINKNIVSSNQIICSDLNTANLKNASEKYGLTTTTDNNEVAKNADILILSIKPDLYASIINEIKEIIKNDAIIVTIAAGKSIESTENAFNKKVKVVRVMPNTPALVGEGMSALCPNEMVTEKDLEDVLNIFNSFGQTEIVSEKLMDVVTSVSGSSPAYVYMIIEAMADAAVLDGMPRNQAYKFAAQAVLGSAKMVLETGIHPGELKDMVCSPGGTTIEAVATLEEKGLRTAIISAMQRCTQKSVELSGQTKKLEHHHHHH | soluble
MPLMPQPTLMPLLQSPSPQHQHQQQQQHRAIGYPQRTLLPQQKQPQQQQPLAYLTSNFNPQQSSVASFNSSPAFTTISDFDQDFDQDYSNCPSLTASPVSTYSLPAYSSTSQQGSSLSAFDSIPNTTTVPRAAQGAAEPLFNLWADPMQTETWLQPADQLTSKSAGRYGHHRESSLSSLGSAGPASPYSNNTSNPQIAVTDFNDFSGFEDLNYHLVPSKASATLHPSFPGYANSNAVPINGYSRAPAVSKQNNNKSFRQEQSVGSNKPRPAPVASSIMSDSSATPAGEAEVAGRQKNGESQENRDLPDRDQSLPFDDVAINNNAPPKFDRTLTDIMNDELYHPDLVITTSAPAPQQTLTTSNNNFNKVVETANQHLSAMQSPASSNSSPFRQGSPHSATLHDFSSLNMASPQVRLGSAQQMRENSKAVQDAAWQQSLARHNQDMTPKTISPKDALLDYHEPEGESNFPLFPQPDNHGFNSDAMSKALSHQSLDGLPNLGDMSTFNFNFSPSNLDSMPTFNGLQQLPQTLQQYSFVNQPRQPSTVPSLATSRMSSAETGITDSPRSNAVQRPVDTRAEGGTYTCTYHGCPLRFDTPQLLQKHKREGHRQAHGLNSRQPNGMTSTRVDTQAGPHRCERINPSTGKPCNQIFSRPYDLTRHEDTIHNARKKKVRCEICTDEKTFSRADALTRHFRVCHPDVPFNGGKQRKARAGRSG | not soluble
MGSDKIHHHHHHMNFYRDATWVLEDIEKEAAKERISGSMQTLVLKSCKRYKLKSNPKHIYAVLDSCWKYKPYLEKVMKKAHILEDIPKKKGKPLFSRLTLLLLCHDLLLSKQKRIQMGKHPIKDYVLKFKSPLHSEMVKLKLKLKVRELSELVLSEDISNDLPPVRWIRINPLKCHPNGETEPVLAELRKKFTLKVDKWSELVPGSIYYDEFIPNLFGIHPSDKITAHELYKHGKIIIQDRASCFPAHILNPGPSDIVIDSCSAPGNKTTHTASYIYPEPPKDNNTRIYAFEKDPERAKVLQKMIKIAGCSPNISVNVGDFTKLATPEKYKDVTCFIVDPSCSGSGIFGRKFFDSFNRRKIDDKDDDGGIVPDEQEEFIAKEELQTRLAKLSSFQFQMVKHAMSFPAAKKIVYSTCSIHAEENERVVIDLLLDKSVREWGWKVAPKREVIPSWPRRGKVEEFEEVFRDGVTYDPQQLAEGCIRALPKSDGGIGFFAVCFERD | not soluble
MENFAYYTPTRLIFGKGLAIITPRWMRHILNDHTLERFVKFSVDIYGLLRLRKRTFMKYLKHHCRIYEEYNRGRIFGQGVCLFIIYYKLEHHHHHH | not soluble
MKCLKPSIGPVRGTDGDWKNIMKQFLRCGLAFAWSSVLGSSIAMDSLFGLPVRSTVKANLGALREGYVNIAVHGHSPLLVSEIVKQGRSREFIQMAKEKGALGIQFYGICCSGLSAMYRYGGVIPLSNAIGAELVLGTGAIDLWVADVQDVFPSIMDVAKCFKTTVVTTSDSARLPGAEHYAYDHHHSNLAQTQELAKTIVKRAIESFEARRDVPVFIPNYEVDAEIGFSVEYATSRFGSMDVIAKALQEGKIRGVVNLVGCNNPRVMYEKAIADVARKLIENNILVLTNGCASFPLLKLGYCNVKALEWTGKELREFLEPDLPPVWHMGECLDNARASAFFRALADSLKKDIKDMPFAFASPEWSNEKGVGAALGFRLLGINSYHSVYPPVQGSKNVMKYLFEDTEKTLGAVMIVEVDPLKLADRIISDIDEKRKALMWK | not soluble
MGHHHHHHHHHHSSGHIDDDDKHMYTKIIGTGSYLPEQVRTNADLEKMVDTSDEWIVTRTGIRERHIAAPNETVSTMGFEAATRAIEMAGIEKDQIGLIVVATTSATHAFPSAACQIQSMLGIKGCPAFDVAAACAGFTYALSVADQYVKSGAVKYALVVGSDVLARTCDPTDRGTIIIFGDGAGAAVLAASEEPGIISTHLHADGSYGELLTLPNADRVNPENSIHLTMAGNEVFKVAVTELAHIVDETLAANNLDRSQLDWLVPHQANLRIISATAKKLGMSMDNVVVTLDRHGNTSAASVPCALDEAVRDGRIKPGQLVLLEAFGGGFTWGSALVRF | soluble
MGHHHHHHSHMRCQESMSAVLTAEQALKLVGEMFVYHMPFNRALGLELERYEKAFAQLAFNNQPMMVGNWAQSILHGGVIASALDVAAGLVCVGSTLTRHETISEDELRQRLSRMGTIDLRVDYLRPGRGNRFTATSSLLRAGNKVAVARVELHNEDQLYIASATATYMVG | not soluble
NKNWFVSFKGTFTYAHNEITQYDESPKYPWQSKIGVSANKNAIYIADGLFIDAADIANHQQQLGAAVIPGDIKYINISRDWYGYDDNLTDTDDWVWAKHPGVPEIVYGFGPSIKWKNLDFSFFFQGIARTSFMVKDFHPFGDSMLRNVLSWVADERWSPDNQNTNATYPRLSRKTNNNNNKLSSYWERNGAFLKLKNAEIGYTYKNMRLYISGSNLMTFAPFDLWDPEQGGGSGLSYPTQRVFNIGFQMTINNK | not soluble
